One experiment addresses T1, I-II loop of α1C (I-IIC) (Oryctolagus cuniculus, UniProt P15381).
T1 construct: I-IIC (436-554)/pGBKT7; expressed in transfected cells; host or cells: AH109 yeast
The experiment is described as follows: Yeast two-hybrid assay, NT peptides versus I-IIC. Type of experiment: binding, rabbit. Conditions: NT segment in pGBKT7, I-IIC in pGADT7. From the text:
For yeast two-hybrid assays, a PCR fragment encoding one partner was fused, in-frame, with the GAL4 DNA binding domain (BD) in pGBKT7 (Clontech, Palo Alto, Calif.). The other element was fused, in-frame, with the GAL4 activation domain (AD) in pGADT7. For specific residues, see Supplemental Data (section 2). For electrophysiology, NT peptides lacking fluorophore tag were PCR amplified and cloned in pcDNA3. NTB peptide residues, 1-95; NTC residues, […]. Throughout, all segments subject to PCR or QuikChange were verified in their entirety by sequencing.
The Matchmaker GAL4 Two-Hybrid System 3 was used (Clontech, Palo Alto, Calif.). AH109 yeast were transformed with pGBKT7/pGADT7-based constructs (Yeastmaker Yeast Transformation System 2 kit, Clontech). After 5-8 days, growth on -leucine/-trytophan plates confirmed transformation of both plasmids. […]
As a ‘medium’ stringency assay, expression of the lacZ gene was tested for encoding β-galactosidase, performing a filter lift with application of blue chromogenic substrate (Clontech-Laboratories, 1999). […] The percentage of colonies that turned blue in the filter lift assay, along with the percentage of colonies that survived on high stringency plates, was recorded for each pairing. […]

A further experiment deals with T2, I-IIC (Oryctolagus cuniculus, UniProt P15381).
T2 construct: I-IIC residues, 436-554; expressed in transfected cells; host or cells: HEK293
T2 sequence (P15381 436-554): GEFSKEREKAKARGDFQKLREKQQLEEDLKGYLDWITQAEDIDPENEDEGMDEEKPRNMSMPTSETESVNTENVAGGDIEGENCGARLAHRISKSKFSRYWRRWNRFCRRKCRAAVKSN
The experiment is described as follows: Live-cell FRET two-hybrid assay versus I-IIC in HEK293 cells. As to conditions: compared with NTB/I-IIB pair. Format: binding, rabbit. An excerpt: To confirm preferential interaction of NTB with I-IIB a live-cell FRET two-hybrid assay was used (Erickson et al., 2003), in which NTB, NTC, I-IIB, and I-IIC were fused to either CFP or YFP, and the resulting fusion constructs expressed pair-wise in mammalian HEK293 cells. Given a Forster distance of ˜50 Å for the CFP/YFP pair (Patterson et al., 2000), the presence of FRET in individual cells would give a strong indication of interpeptide binding in the mammalian intracellular milieu. This indication is generally characterized by a low false-positive rate (Erickson et al., 2003), so that FRET assays provide a useful complement to yeast two-hybrid assays (Allen et al., 1995). […] SCFP (the signal derived from an image obtained with the CFP filter cube) is selective for CFP fluorescence and thereby gives an optical measure of NTB-CFP expression. Analogously, the SYFP signal, derived from preferential excitation and detection of YFP, estimates I-IIB-YFP levels. Finally, the SFRET signal reflects I-IIB-YFP fluorescence stimulated by FRET transfer from NTB-CFP, as well as secondary cross-talk signals. […]
Experiments were performed mostly as previously described (Erickson et al., 2001; Erickson et al., 2003). […] For donor-dequenching analysis, EEFF is calculated as EEFF=^1−CFPpre/CFPpost, where CFPpre and CFPpost are the CFP emissions before/after 3 min YFP photobleaching. […]

T1 sequence (P15381 436-554): as above

On to “NTC: NH3 terminus of L-type channel α1C subunit, free peptide [reference compound]”, for which the “Interaction with I-IIC (yeast two-hybrid)” value with I-II loop of α1C (I-IIC) is listed as “failed to reveal an association”. Besides, in the experiment with I-IIC, the “Kd,EFF for I-IIC (FRET), in words” value is on record as “larger by an order of magnitude or more”.

B1: NTB: NH3 terminus of N-type channel α1B subunit, residues 1-95, expressed as free peptide (SEQ ID NO.: 1) (protein, listed as Homo sapiens)
chain: MVRFGDELGGRYGGPGGGERARGGGAGGAGGPGPGGLQPGQRVLYKQSIAQRARTMALYNPIPVKQNCFTVNRSLFVFSEDNVVRKYAKRITEWP
As to B1, the “Interaction with I-IIC (yeast two-hybrid)” value in the experiment with I-II loop of α1C (I-IIC) is on record as “failed to reveal an association”. Moreover, in the experiment with I-IIC, the “Kd,EFF for I-IIC (FRET), in words” value is recorded as “larger by an order of magnitude or more”.
